Positions count from the first letter of the chain named. In names and notes the source's numbering stands. Values belong to the binder of their own block, whether it stands above or below them.
Key:
[1] = target: T1, huC2b with mouse S2 (huC2b-mS2) (mouse, UniProt P06681 21-243 (human entry)); test: sandwich ELISA: coated anti-C2-5F2.4, HEK293 supernatant, detection with anti-FLAG
T1 chain: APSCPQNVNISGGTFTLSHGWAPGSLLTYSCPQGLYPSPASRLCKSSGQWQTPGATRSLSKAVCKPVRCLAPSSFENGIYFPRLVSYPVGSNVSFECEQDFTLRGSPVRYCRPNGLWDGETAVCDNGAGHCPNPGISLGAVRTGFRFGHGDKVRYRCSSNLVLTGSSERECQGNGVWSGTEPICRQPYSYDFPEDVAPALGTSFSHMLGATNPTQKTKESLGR

[2] = target: T2, wild type C2 with C-terminal FLAG tag (human, UniProt P06681 21-752); test: sandwich ELISA: coated anti-C2-5F2.4, HEK293 supernatant diluted 20 times, detection with anti-FLAG
T2 construct: Secreted into the supernatant of transfected HEK293T cells; not shown: C-terminal FLAG tag
T2 sequence: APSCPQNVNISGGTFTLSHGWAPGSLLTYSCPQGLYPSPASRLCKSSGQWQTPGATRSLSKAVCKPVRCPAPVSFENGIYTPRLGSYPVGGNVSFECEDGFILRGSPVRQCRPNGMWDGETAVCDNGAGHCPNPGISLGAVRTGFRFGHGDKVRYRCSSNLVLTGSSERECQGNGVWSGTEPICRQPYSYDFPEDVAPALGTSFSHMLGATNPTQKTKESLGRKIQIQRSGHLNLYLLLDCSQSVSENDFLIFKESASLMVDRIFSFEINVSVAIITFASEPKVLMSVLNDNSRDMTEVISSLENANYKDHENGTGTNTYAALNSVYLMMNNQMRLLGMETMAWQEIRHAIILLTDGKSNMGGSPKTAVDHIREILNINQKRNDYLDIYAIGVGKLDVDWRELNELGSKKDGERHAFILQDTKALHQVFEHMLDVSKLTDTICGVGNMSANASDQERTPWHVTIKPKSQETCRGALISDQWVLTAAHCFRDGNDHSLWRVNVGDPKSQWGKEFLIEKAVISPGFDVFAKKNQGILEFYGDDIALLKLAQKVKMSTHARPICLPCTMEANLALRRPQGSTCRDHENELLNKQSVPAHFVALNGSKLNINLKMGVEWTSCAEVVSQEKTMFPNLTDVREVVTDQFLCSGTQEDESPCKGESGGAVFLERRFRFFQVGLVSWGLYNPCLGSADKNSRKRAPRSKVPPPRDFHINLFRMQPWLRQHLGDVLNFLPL
Experimental: FIG. 12 depicts results obtained with a domain swap ELISA performed with anti-C2-5F2.4. Anti-C2-5F2.4 mAb (human IgG4 S241P VH4/VL3 LC-13/03-163A Bioceros) was used for coating, plates were incubated with 20 times diluted supernatant of HEK293 transfectants, and binding was detected by an anti-FLAG Ab. Representative results from two independent experiments with similar outcome.
Next, the recognition of the swap mutants by the anti-C2-5F2.4 antibody was investigated. To this effect, microplates (Maxisorp, NUNC, Cat #439454) were coated overnight with 2 μg/mL anti-C2-5F2.4 in 100 μL PBS. Plates were washed 4 times with PBS with 0.05% Tween-20 and blocked with 200 μL PBS with 0.1% Tween-20 with 1% bovine serum albumin (BSA) (PBST-BSA) for 1 hour at RT. After washing, 100 μL culture supernatant containing mutants were added 20× diluted in PBST-BSA and incubated for 2 hours at RT with agitation. After washing, as detection antibody 1 μg/mL biotinylated anti-FLAG (clone M2, Sigma-Aldrich) was added in PBST-BSA for 1 hour at RT. The plate was washed and 1 μg/mL streptavidin-POD conjugate (Roche, Cat #11089153001) was added and incubated in the dark for 30 minutes. […] Absorbance was measured at 450 nm on a microplate reader (BioRad, iMark Microplate reader).

mouse C2 = target: T3, mouse C2 (mouse, UniProt P21180 19-760, limits assumed); test: not described
T3 sequence (looked up): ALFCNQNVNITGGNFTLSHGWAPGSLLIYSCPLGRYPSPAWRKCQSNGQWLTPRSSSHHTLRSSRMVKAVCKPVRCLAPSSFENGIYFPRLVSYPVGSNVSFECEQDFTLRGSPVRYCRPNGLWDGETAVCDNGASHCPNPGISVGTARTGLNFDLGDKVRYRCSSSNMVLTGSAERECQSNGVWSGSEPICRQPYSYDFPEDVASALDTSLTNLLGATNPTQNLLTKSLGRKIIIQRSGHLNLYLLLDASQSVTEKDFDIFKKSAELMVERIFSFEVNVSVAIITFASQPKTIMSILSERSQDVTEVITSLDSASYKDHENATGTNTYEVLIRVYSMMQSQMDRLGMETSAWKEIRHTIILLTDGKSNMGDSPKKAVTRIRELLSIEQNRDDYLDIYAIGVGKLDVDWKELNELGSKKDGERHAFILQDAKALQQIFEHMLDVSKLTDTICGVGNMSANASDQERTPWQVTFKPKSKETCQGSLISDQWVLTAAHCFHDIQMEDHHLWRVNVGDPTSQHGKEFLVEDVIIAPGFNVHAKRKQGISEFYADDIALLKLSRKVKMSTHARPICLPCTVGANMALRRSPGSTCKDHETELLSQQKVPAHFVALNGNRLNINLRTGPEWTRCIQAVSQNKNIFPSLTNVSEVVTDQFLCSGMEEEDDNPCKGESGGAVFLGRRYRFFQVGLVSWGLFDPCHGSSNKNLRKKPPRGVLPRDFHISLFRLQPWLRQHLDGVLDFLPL

[3] = target: T4, human C2b fragment (huC2b) (human, UniProt P06681 21-243); test: sandwich ELISA: coated anti-C2-5F2.4, HEK293 supernatant diluted 20 times, detection with anti-FLAG
T4 construct: Supernatant of transfected HEK293 cells; not shown: FLAG tag (the construct is detected with anti-FLAG)
T4 sequence: T1 chain with L70P, S73V, F81T, V85G, S91G, Q99D, D100G, T102I, Y110Q, L116M

[4] = target: T5, human complement factor C2 (human, UniProt P06681 21-752); test: SPR (Biacore), C2 coated on the chip, Fab in solution, 1:1 model; C2 on the chip, Fab in solution
T5 construct: also called human C2; recombinant human C2
T5 sequence: T2 sequence

- binding result [1]: no binding
- binding result [2]: binds
- binding result (mouse C2): no binding
- binding result [3]: binds
B1: anti-C2-5F2.4 mAb (human IgG4 S241P VH4/VL3 LC-13/03-163A Bioceros) (antibody, V domains shown)
VH: EVQLVQSGAEVKKPGASVKVSCKASGYTFTDYNMDWVRQATGQGLEWIGDINPNYESTGYNQKFKGRATMTVNKSISTAYMELSSLRSEDTAVYYCAREDDHDAFAYWGQGTLVTVSS
VL: DNVLTQSPDSLAVSLGERATISCRASKSVRTSGYNYMHWYQQKPGQPPKLLIYLASNLKSGVPDRFSGSGSGTDFTLTISSLQAEDAATYYCQHSRELPYTFGQGTKLEIK
notes: Human IgG4 S241P; also called humanized 5F2.4

- Kd [4]: ~300 pM
B2: Fab of ARGX-117 (Fab, V domains shown)
VH: B1 VH with N73D
VL: B1 VL
